# Data: patent publication US20040197334A1 (TECHNION RESEARCH AND DEVELOPMENT FOUNDATION, published 2004)
# Values joined by “and” are separate entries in the source; they are usually repeats but may differ in a detail not shown here. Equal values may be shown once. No end group written: not given here.
# T1: biotinylated target Pgp-derived peptide having the amino acid sequence of SEQ ID NO:1 (GEMTDIFANAGNL) (human, also: biotinylated, position not given here)
# T1 construct: also called target peptide
# T1 peptide: GEMTDIFANAGNL
# B1: A2 single-chain Fv (scFv) (scFv)
# scFv: QVQLQQSGPDLVKPGASVKISCKASGYSFTGYYMHWVKQSHGKSLEWIGRANPNNGGTSYNQKFKGKAILTVDKSSSTAYMELRSLTSEDSAVYYCARWDGAYWGQGTLVTVSSGGGGSGGGGSGGGGSDVVMTQTPLSLPVSLGDQASISCRSSQSIVHSNGNTYLEWYLQKPGQSPKLLIYKVSNRFSGVPDRFSGSGSGTDFTLKISRVEAEDLGVYYCFQGSHVPFTFGSGTKLELKEQKLISEEDLNHHHHHH
# notes: Soluble monomeric scFv of about 30 kDa, expressed in E. coli BL21 and purified from the periplasm; In the radioimmunoassay the tracer was labeled with 125I by the Bolton-Hunter reagent; also called A2 scFv; A2 scFv antibody
# Legend:
# [1] = molecular target: T2, human P-glycoprotein (Pgp), 170 kDa, encoded by the mdr1 gene, on the surface of MDR human carcinoma cells … (human, UniProt P08183 1-1280); assay: flow cytometry on MDR, Pgp-overexpressing 2780^ADR cells, A2 scFv 50 µg/ml
# T2 construct: whole, on cells; Overexpressed on the MDR cell lines 2780^ADR (ovarian carcinoma) and KBV-1 (epidermoid carcinoma); also called human cell surface-expressed Pgp
# [2] = molecular target: T2, human P-glycoprotein (Pgp), 170 kDa, …; assay: cell-based or functional assay
# [3] = molecular target: T1, biotinylated target Pgp-derived peptide …; assay: competition radioimmunoassay, cold A2 scFv against [125I]-labeled A2 scFv on plate-bound peptide; the filing calls the value the affinity constant
# [4] = molecular target: streptavidin (UniProt P22629 37-163); assay: ELISA, FIG. 1b
# [5] = molecular target: T1, biotinylated target Pgp-derived peptide …; assay: saturation ELISA on plate-bound biotinylated peptide; the filing calls the value the affinity constant
# T2 sequence (P08183 whole entry): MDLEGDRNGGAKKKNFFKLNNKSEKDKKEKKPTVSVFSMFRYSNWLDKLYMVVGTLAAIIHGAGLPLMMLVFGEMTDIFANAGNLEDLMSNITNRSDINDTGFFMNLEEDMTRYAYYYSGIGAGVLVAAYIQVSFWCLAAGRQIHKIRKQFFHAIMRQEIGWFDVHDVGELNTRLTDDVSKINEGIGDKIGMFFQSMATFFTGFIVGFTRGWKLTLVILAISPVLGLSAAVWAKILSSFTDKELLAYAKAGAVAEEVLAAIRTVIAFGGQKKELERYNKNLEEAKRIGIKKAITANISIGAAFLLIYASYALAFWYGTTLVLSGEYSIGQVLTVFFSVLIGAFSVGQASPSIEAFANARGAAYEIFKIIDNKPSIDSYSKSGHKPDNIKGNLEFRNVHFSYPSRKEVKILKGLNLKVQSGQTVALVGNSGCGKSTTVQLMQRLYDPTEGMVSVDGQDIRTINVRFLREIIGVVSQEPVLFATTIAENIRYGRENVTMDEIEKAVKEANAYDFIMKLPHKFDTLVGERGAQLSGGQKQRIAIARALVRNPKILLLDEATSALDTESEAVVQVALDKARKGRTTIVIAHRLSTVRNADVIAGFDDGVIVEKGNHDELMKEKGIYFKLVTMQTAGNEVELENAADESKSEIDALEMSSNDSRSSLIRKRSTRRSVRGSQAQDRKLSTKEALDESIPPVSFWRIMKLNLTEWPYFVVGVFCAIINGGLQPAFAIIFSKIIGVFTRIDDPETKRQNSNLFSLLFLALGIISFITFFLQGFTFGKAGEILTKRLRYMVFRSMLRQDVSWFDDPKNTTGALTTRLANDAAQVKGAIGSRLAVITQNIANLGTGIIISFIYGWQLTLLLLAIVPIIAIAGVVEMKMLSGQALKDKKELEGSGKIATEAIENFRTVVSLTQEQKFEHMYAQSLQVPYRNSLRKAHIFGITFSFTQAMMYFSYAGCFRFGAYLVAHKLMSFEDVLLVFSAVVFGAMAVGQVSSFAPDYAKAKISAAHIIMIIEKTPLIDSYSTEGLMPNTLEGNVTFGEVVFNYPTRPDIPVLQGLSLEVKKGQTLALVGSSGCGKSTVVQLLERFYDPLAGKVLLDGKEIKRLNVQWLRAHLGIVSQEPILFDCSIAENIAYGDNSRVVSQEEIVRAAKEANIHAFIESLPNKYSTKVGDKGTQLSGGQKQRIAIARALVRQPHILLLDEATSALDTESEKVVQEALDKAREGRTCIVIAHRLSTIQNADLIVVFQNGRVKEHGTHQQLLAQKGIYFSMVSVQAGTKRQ
# Sequence of streptavidin (P22629 37-163 limits assumed): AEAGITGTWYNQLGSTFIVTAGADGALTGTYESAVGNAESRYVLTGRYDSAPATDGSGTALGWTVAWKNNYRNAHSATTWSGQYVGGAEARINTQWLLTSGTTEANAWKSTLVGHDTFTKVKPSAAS
binder,measurement,setting,value
B1,fold increase in fluorescent intensity,[1],10 fold
same,"concentration of A2 scFv that inhibits 50% drug-efflux activity (IC50), calcein accumulation in 2780^ADR cells",[2],~65 µg/ml and ~2.6 µM
same,IC50,[3],~130 nM
same,binding result,[4],no binding
same,EC50,[5],~150 nM
